From publication PMC10960309

Tests used:
Test in all cases: purified protein
Conditions in all cases: 50 mM sodium borate pH 9.5, 37°C, 1.9 mM OPA, 1 mM DTT, 5% DMSO
purified protein [1] = substrate: CCCCCCCC(=O)N[C@H]1CCOC1=O
purified protein [2] = substrate: CCCCCCCCCC(=O)CC(=O)N[C@H]1CCOC1=O
purified protein [3] = substrate: CCCCCCCCCCCC(=O)N[C@H]1CCOC1=O
purified protein [4] = substrate: CCCCCCCCCC(=O)N[C@H]1CCOC1=O

B1: PvdQ (Pseudomonas aeruginosa PAO1) (protein)
chain 1: DMPRPTGLAADIRWTAYGVPHIRAKDERGLGYGIGYAYARDNACLLAEEIVTARGERARYFGSEGKSSAELDNLPSDIFYAWLNQPEALQAFWQAQTPAVRQLLEGYAAGFNRFLREADGKTTSCLGQPWLRAIATDDLLRLTRRLLVEGGVGQFADALVAAAPPGAEKV
chain 2: SNAIAVGSERSADGKGMLLANPHFPWNGAMRFYQMHLTIPGRLDVMGASLPGLPVVNIGFSRHLAWTHTVDTSSHFTLYRLALDPKDPRRYLVDGRSLPLEEKSVAIEVRGADGKLSRVEHKVYQSIYGPLVVWPGKLDWNRSEAYALRDANLENTRVLQQWYSINQASDVADLRRRVEALQGIPWVNTLAADEQGNALYMNQSVVPYLKPELIPACAIPQLVAEGLPALQGQDSRCAWSRDPAAAQAGITPAAQLPVLLRRDFVQNSNDSAWLTNPASPLQGFSPLVSQEKPIGPRARYALSRLQGKQPLEAKTLEEMVTANHVFSADQVLPDLLRLCRDNQGEKSLARACAALAQWDRGANLDSGSGFVYFQRFMQRFAELDGAWKEPFDAQRPLDTPQGIALDRPQVATQVRQALADAAAEVEKSGIPDGARWGDLQVSTRGQERIAIPGGDGHFGVYNAIQSVRKGDHLEVVGGTSYIQLVTFPEEGPKARGLLAFSQSSDPRSPHYRDQTELFSRQQWQTLPFSDRQIDADPQLQRLSIRE
- Km (purified protein [1]): (1.18 ± 0.34) × 10^2 μM
- Km (purified protein [2]): (2.35 ± 0.07) × 10^2 μM
- kcat (purified protein [2]): 5.23 ± 0.55 s⁻¹
- kcat/Km (purified protein [2]): 22200 ± 4000 M⁻¹ s⁻¹
- Km (purified protein [3]): 98.1 ± 34.1 µM
- Km (purified protein [4]): (1.13 ± 0.42) × 10^2 μM
